Values of other authors in patent publication US20080160019A1, “SEQUENTIAL COMBINATION THERAPY” (DYAX CORP., priority 2006, published 2008).

Biological target: Tie1 (Homo sapiens, UniProt P35590)
Sequence (P35590 22-1138): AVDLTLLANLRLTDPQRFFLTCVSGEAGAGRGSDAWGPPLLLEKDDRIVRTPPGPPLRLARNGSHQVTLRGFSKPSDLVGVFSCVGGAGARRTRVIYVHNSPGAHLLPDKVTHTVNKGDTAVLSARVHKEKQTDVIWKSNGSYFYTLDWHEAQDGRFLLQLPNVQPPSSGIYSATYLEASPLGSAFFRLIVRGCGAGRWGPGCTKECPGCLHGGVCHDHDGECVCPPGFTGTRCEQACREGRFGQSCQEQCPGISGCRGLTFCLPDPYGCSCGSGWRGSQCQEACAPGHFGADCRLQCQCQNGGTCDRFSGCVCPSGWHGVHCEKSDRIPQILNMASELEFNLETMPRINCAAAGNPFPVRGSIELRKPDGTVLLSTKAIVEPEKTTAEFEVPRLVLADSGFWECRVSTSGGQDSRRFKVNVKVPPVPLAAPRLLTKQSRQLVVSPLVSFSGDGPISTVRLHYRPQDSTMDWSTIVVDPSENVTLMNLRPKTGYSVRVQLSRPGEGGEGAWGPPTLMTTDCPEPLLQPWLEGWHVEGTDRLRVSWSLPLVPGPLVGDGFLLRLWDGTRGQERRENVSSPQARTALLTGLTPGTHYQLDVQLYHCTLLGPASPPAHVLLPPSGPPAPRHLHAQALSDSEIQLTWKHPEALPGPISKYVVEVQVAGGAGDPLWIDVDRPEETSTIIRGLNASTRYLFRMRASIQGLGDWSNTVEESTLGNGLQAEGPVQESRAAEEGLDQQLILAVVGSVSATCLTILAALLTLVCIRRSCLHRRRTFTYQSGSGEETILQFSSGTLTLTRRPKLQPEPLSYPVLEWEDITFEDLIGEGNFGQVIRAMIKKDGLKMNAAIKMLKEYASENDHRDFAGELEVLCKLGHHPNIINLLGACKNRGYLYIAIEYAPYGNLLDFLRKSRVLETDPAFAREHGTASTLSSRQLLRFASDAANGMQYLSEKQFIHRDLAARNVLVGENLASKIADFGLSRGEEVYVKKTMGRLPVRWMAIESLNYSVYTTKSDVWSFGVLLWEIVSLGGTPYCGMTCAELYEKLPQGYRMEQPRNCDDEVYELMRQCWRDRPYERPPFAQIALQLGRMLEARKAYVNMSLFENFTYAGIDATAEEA

B1: M0044-B08: Tie1 ectodomain-binding antibody, variable domains SEQ ID NO:2 and 4 (antibody, listed as Homo sapiens, V domains shown)
VL: QDIQMTQSPSFLSASVGDRVTISCRASQYISIYLNWYQQRPGEAPKLLINAASSLQSGDPSRFSGSGSGTDFTLTINSLQPDDFATYYCQQYKSYPLTFGEGTKVEIK
VH: EVQLLESGGGLVQPGGSLRLSCAASGFTFSAYGMGWVRQAPGKGLEWVSVISPSGGQTSYADSVKGRFTISRDNSKNTLYLQMNSLRAEDTALYYCAGGDRYGPLHYWGQGTLVTVSS
induce: Tie1 tyrosine phosphorylation | Tie complex formation | down modulation of Tie1 from the cell surface
